This series concerns the molecule itself. Put plainly: SEC; analytical SEC on a calibrated Superdex 200 10/300 GL column; 25 mM Tris-HCl pH 7.5, 150 mM NaCl, 2 mM β-mercaptoethanol; 1.0–2.0 mg/mL protein, 100 µL applied; tetramer to monomers.

The record followed here is publication PMC13125535, “Reprogramming of bacterial virulence by lysine acetylation” (Nature Communications, 2026).

B1: SnCE1_(104-310) C256A (non-acetylated) (domain or fragment)
chain: GEKDRFLIDERNWLNNQHLGLYSLFLQEKYGPEVFFPFGGWTYVFPGLTDRFFKEDSYHILDVRAKRIKSFLDYKSITYPLFIGGNHWGLLFIDREKRTVEYYDSKINYGNYEEGLQGIKDVAAKFTKYDPGEKPYTYLEKIKKKLQPDGYQAGPWALYFLEHRLENPEVDFNQLDLNEAQNMIAKYRFAVRDKLLELQKNGNTLYC
notes: SnCE1, Simkania negevensis, UniProt F8L4W9, residues 104-310; Not acetylated; no proteolytic processing seen for this truncated protein; not shown: GST, N-terminal, cleaved
On to B1, for which the “stoichiometry N” value worked out at 4.

B2: SnCE1 C256A AcK209 (domain or fragment)
chain: SLTSKAICRYSLSSVESIQPKTQVKAIEPKGEKDRFLIDERNWLNNQHLGLYSLFLQEKYGPEVFFPFGGWTYVFPGLTDRFFKEDSYHILDVRAKRIKSFLDYKSITYPLFIGGNHWGLLFIDREKRTVEYYDSKINYGNYEEGLQGIKDVAAKFTKYDPGEKPYTYLEKIKKKLQPDGYQAGPWALYFLEHRLENPEVDFNQLDLNEAQNMIAKYRFAVRDKLLELQKNGNTLYC
modifications: acetyl-lysine at 209
notes: SnCE1, Simkania negevensis, UniProt F8L4W9
With B2, the “stoichiometry N” value was found to be 4.
